These results are taken from patent US20210355180A1.

Assay [1] deals with N-terminally biotinylated human Aβ1-40 peptide (human). As to the kind of experiment: ELISA, ABD periplasm captured on anti-ABD, 2 nM biotinylated hAβ1-40.
The target is the same in assay [2]. As to the kind of experiment: SPR (Biacore 2000), periplasm diluted 15x over hAβ1-40 surface (blank control).

N-terminally biotinylated human Aβ1-40 peptide (human), sequence (peptide, as listed by the source): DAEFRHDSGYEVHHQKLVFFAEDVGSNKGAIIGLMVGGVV

In the case of “ABD (albumin binding domain GA3 from streptococcal Protein G), periplasm control (from UniProt P19909 254-299)”, the ELISA response (absorbance 450 nm) in assay [1] is 0.063 AU. The Response RU in assay [2] was found to be 2 RU.
